Publication doi:10.1101/2023.03.10.531533 (bioRxiv, 2023)

How the values were obtained:
[1] = target: SARS-CoV-2 Wuhan spike protein on HEK293T cells (SARS-CoV-2 Wuhan, UniProt P0DTC2); assay: flow cytometry on cells
[2] = target: recombinant prefusion stabilized SARS-CoV-2 spike protein (S-2P) (SARS-CoV-2 Wuhan, UniProt P0DTC2, stabilised); assay: HDX-MS
[3] = target: recombinant SARS-CoV-2 S-6P spike protein (SARS-CoV-2 Wuhan, UniProt P0DTC2, stabilised); assay: ELISA

Measured: binding result

B1: VHH R3DC23 (VHH)
VHH: QVQLQESGGGLVQAGDSLTLSCAVSGRIFSTYTMGWFRQAPGKEREFVAAVRWGAGTIYYADSMKGRFTISRDSAKNTVDLQMNSTKPEDTAVYYCGAAYVSKANYGSLWYQDSRRYDYWGQGTQVTVSS
binds: all assays above
